The series in a line: label from the status in PepcDB records.
For “MQHSTLEPSTSLDVPSCIPRVSRYPRVKDVIARKYRLVVKTIGYIGWSLFWLLIWDVLVTIDFMLFLNSKFTLPLIPLTLLGSALVVLVSFRNSSAYSRWWEARTLWGALVNSSRSFARQTLTLIDDPDDGLNPVKATLLRRHIAYVNCLAAHLKGESCPEELMAFIPPAEFERRNRSNNFANDILGGSAALLAREYQAGRLDSIRLARLESTLVDLSNAQGGMERIANTPLPYPYVYFPRLFITLFCLIVPVGLVESLGWFTPLASTVVGFMLLAIERIGTDLQSPFRFSEHQIQMDTICETIERNLESMQREAQCAEAVDA”, the protein production result is recorded as “failed”.
Take “MQHYFYYIHSKHITPCFIFVDDVLSCLQRLNYQHLPAVSWSCFVSDQIIARVSQSLAKEQSLESLVRQLLEMLEMVTDMESTYLTKVDVEARLQHIMFARNSQKMHIPENFTVSWDYSLCKRAIDENCFFSDEVPDRWGDCIAARNLGITTFLSTPIHLPDGSFYGTLCAASSEKRQWSERAEQVLQLFAGLIAQYIQKEALVEQLREANAALIAQSYTDSLTGLPNRRAIFENLTTLFSLARHLNHKIMIAFIDLDNFKLINDRFGHNSGDLFLIQVGERLNTLQQNGEVIGRLGGDEFLVVSLNNENADISSLRERIQQQIRGEYHLGDVDLYYPGASLGIVEVDPETTDADSALHAADIAMYQEKKHKQKTPFVTHSALHS”: the protein production result is on record as “failed”.
With “MQIGKVTGSLWATRKDEKLNGLKLLLVEITDEVEDKRHSIVAADNAGAGNGDLVLVTTGSAARASTGDNTIPVDACIVGIIDSVERYGLEHHHHHH” the entry was “failed”; with “MQIGPGSATRLEFRRHFAATPEQLWAALTSPALLPAWLFARGWPMTECVFEPHKGGLIRQVWTGPEGRTRGLTGRVILAEPPHRLIHSELYDEDWTGGETLVTLQLLPVEGGTELAMAVDYATPEARDAVAASAMATEMEEAYRHLDVMLAALEHHHHHH”, “not failed”.
As for “MQIKAGLIWMNGAFVPQEEAKTSVLSHALHYGTSVFEGIRAYETAKGPAIFRLKEHVKRFYNSAKVLRMEIPFAPEELEEAIKEVVRRNGYRSCYIRPLAWMGAKALGVNPLPNNPAEVMVAAWEWGAYLGEEAVRKGARLITSSWARFPANVMPGKAKVGGNYVNSALAKMEAVAAGADEALLLDEEGYVAEGSGENLFFVRDGVIYALEHSVNLEGITRDSVIRIAKDLGYEVQVVRATRDQLYMADEVFMTGTAAEVTPVSMIDWRPIGKGTAGPVALRLREVYLEAVTGRRPEYEGWLTYVNGQ”, the entry is “not failed”; as for “MQINGKAPRNKDLEPHSFELWLNAAKTNLDKYEMALIITATLGLRRGEVMGLRNESIKISHDQINDADVAQISIDMQRNTNELNGGPLKTKSSYRTIWAFGKTVDHLKYAMITADNLRQRNNIQAEKHWLWLNNDGNPLHPTHLNRLMRRVSNRSGVEVYPHLLRHYFATQAIAANKPQIDVMHYLGHKNLQMTADYTRSTKAASLNVFNSIDKFLLEHHHHHH”, “not failed”.
As for “MQISDIEVFAAIASSRSLSEAARRLGLSPMAISRRLAALENDLGVRLFHRTTRSVSLTPEGEVFLPHAKTILEASEAARTTLKADAGSASGVLRVTAPSVFGQTVIMPLLPALMLENPALSIDLTLSDSIVDIAGLGIDVAIRIATIRDSALVARSLAPNPRVVCVSPDYLARHGKPTLLEELRHHPCIALHAMPWWPFTRNGEPITIRAQGPFSANSVEAVRTACKQGMGLAMLTYWDVRQEINEGSLQQVDFEDAMPEQLSVTAVLPTRQRVPHRVRLFIDRLEAALKSKAGAAGVTL”, the entry is “failed”; as for “MQIYQLSGRNVEVTEPMREYVEEKLSRLDRYTDQITDARVTLTVRDVRNNERRNRVEVQLNVPGGIIRAEEHHADMYAAIDKASDVLERQLRKFKTRYMKQRQEGRPEPLPGPAEAEVNAQGSGAAMDDVSEFHPEIVRQKRFELRPMSAEDAVVQMEALGHDFYVFQDLQGQTGVVYRRRDGHYGLIGSS”, “failed”.
As for “MQKALFNLVLRGLEKQVPATGLGLFRLAFGLVAFQEICFLYYFRQLIFDPVPYLDIASPSVHLFLVLWAIAALCLALGLYTRLAAIANYLFWLVFTVFTPMWKDFDGGFDQLMLGSSLLLIFLPSERAWSLDRLRLAWRHSTVDRCYALPRTVPVLCYFLPLAVSLGFIYFDSVIHKLFAEFWRNGLGPWLPSSLPYYMSPLDMGWLLEIEPLQRAIGYTIIAFQFAFLFLLYFRRFRVPLMLVGLSLHAGIIVSLNIYPFGFGMLVHYFLMVPFRWWRTLGRTLRPAEPALQVFYDERCPLCLKTVLAIEHFDVFRAVEFRGLQTHAATAPALEDIPERDLLGDLYAVDREGRRYSGVATYARILVAMRYPALAGLAMRLPGLATIADRVYRRIADNRVRLGCDASCAPAPGRTEPDLAQRIGRWVGGSLQQRANRISRMLVVVLILQLNCTLHYAILYRLGVDTKANEAGQVLTMLSNALISASHTFLGITPHPLYLHDHFQGYEHILGIVHLDADGKERWLPFVDEEGRIVSPNWGRVHSMWANVAVTRHMDPRRLDKFVRKVTAFWGTRLGLDLNRTTFVLKLKTVKAPMDWEPGLRRYNLAQPWEDVGRAVWRDGEMRLELDRDLEALSAD”, the protein production entry is “failed”.
As for “MQKGVYIMNSTSSIITIGREYGSGGRQIGQEVAKYFGIKCYDKELLEHAANDSGICKELFEHHDEKPTNSFLYSLVMDTYSFGYSSSGFSDMPMNHKIFLAQFDAIKKLAGEGPCVMVGRCADYALADWNDCFSIFVHADLDWRINRIASKHGKTPKEAKDMITKTDKSRASYYNYYTNKKWGAARSYNLCIDSGKLGIDYATEAIIESIKIFDRTKISK”, the entry is “failed”; as for “MQKTSFALLVAALQLASASALAATPPVADAIWFNGPIITIDDQHPKAQAVAVKDGKILAVGDRQHVLKNKGPATQMLDLKGATLLPGFVDPHGHVSMVGFQAASANLLPPPDGTNNSIPGLQETLRRFEQQSPIPKQFGVLFGFGYDDSQLQEQRHPTKADLDAVTRDLPIAIVHQSSHLGVLNSKALELAGIDASTPNPEGGVIRRVDGSQEPNGVLEENAFFNALIRIFPKLTADQAVDMLSAGQKLYVSYGYTTIQDGRSSPDQVKTAIKAAGDGKLLADIVSYPDILTPGVKQLMVAPWYHPSNQPVVYNQHFRIGGVKLTLDGSPQGKTAWLSQPYFKPPQGQDASYAGYGVVKDADALAIYKEALANRWQILSHTNGDRAIDQLLGSMRAAEQAYPGVDVRPVMIHGQTLRKDQVAELKQLKIFPSLFPMHTYYWGDWHRQSVLGPERAENISPTQWVLQAGMKFTTHHDAPVALPDSMRVLAATVNRTTRSGYVLGPDQRVTPLQALKAMTLWSAYQHFEEDRKGSITPGKLADFAVLSANPLTVKPETLSEIQVLKTVKEGRVIYERPAKVASLPPPFGMHGDPSLPVPQGIRAVAQGDGDLGPALDVIYDRLAPVQP”, “failed”; as for “MQLEPRINTFSMEAMFTFSSTFLYDSIVDSSRPILATSLLGCDVTDPERRATTACCICEETLSELHMTRPTQKVKAVSGPTRERHIIFSTCKPVL”, “failed”.
Consider “MQLKSRVFIVTGASSGLGAAVTRAGSGGRDSARAGPEAASGGRACRSSARRCASEMPTRMRPTPPPLAFAKQEFGHVHGLVNCAGTAPGEDSRQERPARTGQFRPHGRRQPDRHSTYGLPPRSCRRESRTPTASGVIVNTASIAAFDGQIGQAAYAAEGRRRRPDASGRARARAFRNSRRPLRPASSIRRWPACLRMFRMRAASVPFPPRLGRAEEYAALVKHIREYDAQWRGHPPRRGFAHGAPV”, for which the protein production result was “not failed”.
As for “MQLLKELCSIHAPSGNEEPLKDFILEYIRSNAGSWSYQPVIYADNDLQDCIVLVFGNPRTAVFAHMDSIGFTVSYNNHLHPIGSPSAKEGYRLVGKDSNGDIEGVLKIVDEEWMLETDRLIDRGTEVTFKPDFREEGDFILTPYLDDRLGVWTALELAKTLEHGIIAFTCWEEHGGGSVAYLARWIYETFHVKQSLICDITWVTEGVEAGKGVAISMRDRMIPRKKYVNRIIELARQTDIPFQLEVEGAGASDGRELQLSPYPWDWCFIGAPEKDAHTPNECVHKKDIESMVGLYKYLMEKL”, the entry is “not failed”; as for “MQLLPGPVRRFAAWCAVILLASGVVYVAIRLCVEFRTAVTPALLALLGTALLRPLHARLVKAHVQRSLAAGLTCAAVLAVVGGAVYIVVSALVETGDQIVTSLRDAAQGIADHFGAAGTSLDDLASNARELLGKFGGTAASGVVTGISVVGEMIAMAVLALLLVFFFLRDSDRAVTTVRALAPPGGADTVEAVARRAFGAVEGFMRGTTLIALIDAFCITVGLLVLRVPGAVGLGALVFVGAYIPYLGAFISGAVAVLVALADRGFVIALWALGVVLAVQVLEGHVLQPMIQSRTVQMHPAVVLLALTAGASVAGILGMLLAVPLTAAAFGVVHELQARYGVSTAASGPDAGPAPSTGAADS”, “failed”; as for “MQLMRFDKPIGTLLLLHPTLWALFAAAGGIPSSSILIIFILGVIVMRAAGCVINDYADRHIDGKVKRTSQRPLATGRVTTVEAKVLFFVLLIIAFLLDLSLNQYAFLLSFVAVALAVIYPFMKRFTHLPQVVLGMAFGWAIPMAYGAVIEDLPLTCWLLFLANILWTVAYDTQYAMVDRDDDLRIGVKSTAILFAQYDNKIIALLQFLSLILFILFGWLSEYHIGYFIVLALTSTLFIYQCWLTKQRVREQCFKAFLNNNYFGFGIFIAILVGIYGF”, “failed”.
As for “MQLWIYGVLIRLVTPAVFVWLWLRGGKDSRYRQNWSERLALGSVDKKQHGCLVIHSVSVGETLAAKRLIEQLLRQEPGQKILITCMTPTARELIQQHFADTVSCRYWPIDSPGAAKRFVRKFKPKAVWVMETELWPQMLNQFSKANIPVALLNARLSARSAAGYRRFHWLMKKVWKQLTLVSVQNKETARRMKVLGVPDSVLFVDGNLKYDIELSVTDIEKALLWRQSCASRHVWLASSSHPGEHELLLEAHKLIQQDLSNSCLIIAPRHPEQFEVVAKMIRESGLKLARRSESNAIPEDCDVFLADSMGEMMLWGQLASASFVGGSIIERGGHNPLEVIAAGSNVMSGRHVFNFPQVYGELAKAGAVQWVNNAGEIKQAVELMQQTAVMKAQHEAAKSVLQTHQGATLRVLKRALEYTLTGSGMIKTEQSPQGLIRYDSDIFETIEDKHFTAQYWQQQKSIAGNSTGRATVWFIQQGDLGLLLRHYYRGGLVGKINKDRFLREPAEKSRAIHEFDLLLKLREIGLPVPRPVAARMEKTAVFSYKADILVEVIPGAVDVFRLLREKKLSAELWQKLGSVIKELHDTGVYHSDLNCHNLMLDDKDKAWIVDFDKCDFRENGDWKEANIQRLLRSLRKEKEKNETFYWKESRDWPELLTGYRR”, the entry is “failed”; as for “MQNDFDRVFVLTGGPGSGKTTLIAALRRAGFATSVVAGRGIVRDQSSIGGTALPWSDRTLFAELMLSWEMRSYQNAVEQKGPVFFDRGVPETLGYLRLSGLPVADHVSTAAKRFRYNPRVFIAPPWPDIFAQDEERKQTPDEAKCTYHALAEIYTELGYELVPLPLAPVETRLRFVLADAGLEHHHHHH”, “failed”; as for “MQNLDRDVVIVGAGPSGLTAARELKKAGLSVAVLEARDRVGGRTWTDTIDGAMLEIGGQWVSPDQTVLMELLDELGLKMYSRYRDGESVYIGADGKRTQYTGDTFPVNETTKAEMDKLVAILDELAAEIGPTEPWAHPKARELDTISFHHWLRQNSNDEEACNNIGLFIAGGMLTKPAHAFSALQAVLMAASAGSFSHLTDEDFILDKRVIGGMQQVSLLQAAELGDDVVLNSPVRTIKWDENGVSVVSERATVNARFVIMAVPPNLYSRVSFDPPLPRRQHQMHQHQSLGLVIKVHAVYDTPFWREEGLSGTGFSAGALVQEVYDNTNHGDSRGTLVGFVSDEKADAVFELSAEDRKKAILESIAGFLGDKALTPEVYYESDWGSEEWTRGAYASSYDLGGLHRYGKDQHANVGPIYWSSSDLAAEGYQHVDGAVRMGQATAARIVEANKLASVPVA”, “not failed”.

The record behind these values is a protein production outcome set (Wang et al. 2014).
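Further: failed if final PepcDB status was selected cloned or expressed and not failed if soluble or beyond.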
